Test results published in PMC12645976, “ARGLU1 is a negative regulator of the adenoviral replicative cycle” (Journal of Virology, 2025).

Target: T1, 6xHis-E1A289R (HAdV5 E1A289R, 6xHis-tagged fusion protein) (human adenovirus 5 (HAdV5), UniProt P03255 1-289)
T1 construct: Early protein 1A (E1A) of human adenovirus 5 (HAdV5), the 289R product (289 residues by its name); also called Early protein 1A
Assay: pull-down; GST-ARGLU1 or GST mixed with 6xHis-E1A289R, captured on glutathione beads; 1 µg of each protein; western blot with M73 and M2 monoclonal E1A antibodies; glutathione beads alone as negative control
Conditions: both partners purified

T1 sequence (P03255 whole entry, the tested form may be a part): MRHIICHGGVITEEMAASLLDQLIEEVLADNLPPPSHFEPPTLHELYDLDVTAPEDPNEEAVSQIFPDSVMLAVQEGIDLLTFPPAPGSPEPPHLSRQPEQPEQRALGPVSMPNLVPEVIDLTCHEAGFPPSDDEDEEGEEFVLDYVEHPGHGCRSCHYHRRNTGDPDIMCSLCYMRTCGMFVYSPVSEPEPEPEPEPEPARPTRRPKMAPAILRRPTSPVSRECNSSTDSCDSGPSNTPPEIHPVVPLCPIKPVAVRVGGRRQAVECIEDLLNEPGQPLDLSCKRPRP

B1: GST-ARGLU1 (human ARGLU1, GST-tagged fusion protein) (natural protein, UniProt Q9NWB6 1-273, looked up)
chain: MGRSRSRSSSRSKHTKSSKHNKKRSRSRSRSRDKERVRKRSKSRESKRNRRRESRSRSRSTNTAVSRRERDRERASSPPDRIDIFGRTVSKRSSLDEKQKREEEEKKAEFERQRKIRQQEIEEKLIEEETARRVEELVAKRVEEELEKRKDEIEREVLRRVEEAKRIMEKQLLEELERQRQAELAAQKAREEEERAKREELERILEENNRKIAEAQAKLAEEQLRIVEEQRKIHEERMKLEQERQRQQKEEQKIILGKGKSRPKLSFSLKTQD
notes: Arginine and glutamate-rich protein 1 (ARGLU1), human; also called Arginine and glutamate-rich protein 1; source: E. coli BL21 (DE3)-CodonPlus RIPL, purified (glutathione Sepharose, eluted with reduced glutathione, dialyzed)
binding result: binds
